In paper PMC11096383 one finds TGFα shedding assay (AP-TGFα release on CNO, concentration-response) in ∆Gq/∆G12 HEK293 cells; relative intrinsic activity (RAi) of Gα (q-12C) against Gα (q-13C) data, which are given here for one molecule.

The test addresses G12D (M3D-GPR183/ICL3 F93^1.57V), FLAG-epitope-tagged (human).

G12D (M3D-GPR183/ICL3 F93^1.57V), FLAG-epitope-tagged (human), sequence (chain, as listed by the source G12D): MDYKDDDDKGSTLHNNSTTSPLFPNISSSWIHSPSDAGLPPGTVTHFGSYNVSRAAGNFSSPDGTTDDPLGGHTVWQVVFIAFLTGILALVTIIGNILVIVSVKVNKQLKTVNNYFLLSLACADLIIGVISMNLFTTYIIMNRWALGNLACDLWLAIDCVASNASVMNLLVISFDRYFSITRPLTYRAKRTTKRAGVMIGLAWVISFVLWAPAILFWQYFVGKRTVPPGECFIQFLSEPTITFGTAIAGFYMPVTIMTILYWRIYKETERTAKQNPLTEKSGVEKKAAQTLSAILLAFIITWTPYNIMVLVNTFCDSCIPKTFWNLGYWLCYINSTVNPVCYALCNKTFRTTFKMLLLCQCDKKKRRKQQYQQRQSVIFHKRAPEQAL

B1: Gα_(q-12C) (protein)
chain: MTLESIMACCLSEEAKEARRINDEIERQLRRDKRDARRELKLLLLGTGESGKSTFIKQMRIIHGSGYSDEDKRGFTKLVYQNIFTAMQAMIRAMDTLKIPYKYEHNKAHAQLVREVDVEKVSAFENPYVDAIKSLWNDPGIQECYDRRREYQLSDSTKYYLNDLDRVADPAYLPTQQDVLRVRVPTTGIIEYPFDLQSVIFRMVDVGGQRSERRKWIHCFENVTSIMFLVALSEYDQVLVESDNENRMEESKALFRTIITYPWFQNSSVILFLNKKDLLEEKIMYSHLVDYFPEYDGPQRDAQAAREFILKMFVDLNPDSDKIIYSHFTCATDTENVRFVFHAVKDTILQENLKDIMLQ
B1 displayed a TGFα shedding assay (AP-TGFα release on CNO, concentration-response) in ∆Gq/∆G12 HEK293 cells; relative intrinsic activity (RAi) of Gα (q-12C) against Gα (q-13C) of 4.6 fold.
